For the test, the target named is TrkB receptor (UniProt Q16620 32-822, limits assumed). As to the kind of experiment: cell-based or functional assay.
TrkB receptor, sequence (Q16620 32-822 limits assumed): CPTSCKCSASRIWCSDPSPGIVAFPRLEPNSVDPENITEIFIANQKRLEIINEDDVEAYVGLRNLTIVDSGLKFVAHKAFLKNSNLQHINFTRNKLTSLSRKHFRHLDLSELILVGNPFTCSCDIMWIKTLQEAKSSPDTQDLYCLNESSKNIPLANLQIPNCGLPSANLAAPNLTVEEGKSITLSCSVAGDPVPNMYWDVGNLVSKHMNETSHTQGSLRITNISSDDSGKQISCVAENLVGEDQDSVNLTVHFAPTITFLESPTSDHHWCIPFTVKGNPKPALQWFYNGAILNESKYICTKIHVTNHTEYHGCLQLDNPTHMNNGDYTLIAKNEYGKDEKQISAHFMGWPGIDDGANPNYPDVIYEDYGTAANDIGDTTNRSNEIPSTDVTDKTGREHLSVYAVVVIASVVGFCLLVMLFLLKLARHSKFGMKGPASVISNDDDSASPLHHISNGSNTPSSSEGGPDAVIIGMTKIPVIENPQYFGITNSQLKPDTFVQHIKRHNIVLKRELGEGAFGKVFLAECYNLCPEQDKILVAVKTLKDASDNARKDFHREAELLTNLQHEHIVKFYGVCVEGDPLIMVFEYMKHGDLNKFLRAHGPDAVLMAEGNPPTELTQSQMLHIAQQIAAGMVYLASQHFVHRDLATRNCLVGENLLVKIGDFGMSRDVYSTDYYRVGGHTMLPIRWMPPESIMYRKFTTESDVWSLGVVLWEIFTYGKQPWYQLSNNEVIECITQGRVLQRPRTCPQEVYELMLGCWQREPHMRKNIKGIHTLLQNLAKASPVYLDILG

B1: brain-derived neurotrophic factor (BDNF) (ligand, UniProt P23560 129-247, looked up)
chain: HSDPARRGELSVCDSISEWVTAADKKTAVDMSGGTVTVLEKVPVSKGQLKQYFYETKCNPMGYTKEGCRGIDKRHWNSQCRTTQSYVRALTMDSKKRIGWRFIRIDTSCVCTLTIKRGR
B1: the “EC50, BDNF-induced activation of TrkB (luminescence, DiscoverX kit cells)” value is 0.7 nM.

B2: neurotrophin-4 (NT-4) (ligand, UniProt P34130 81-210, looked up)
chain: GVSETAPASRRGELAVCDAVSGWVTDRRTAVDLRGREVEVLGEVPAAGGSPLRQYFFETRCKADNAEEGGPGAGGGGCRGVDRRHWVSECKAKQSYVRALTADAQGRVGWRWIRIDTACVCTLLSRTGRA
For the molecule B2, the “EC50, NT-4-induced activation of TrkB (luminescence, DiscoverX kit cells)” value is 0.012 nM.

Source of the values: patent publication US20180170995A1 (LEVICEPT, published 2018).
